Reference: PMC5454376, “Molecular mechanism of Gαi activation by non-GPCR proteins with a Gα-Binding and Activating motif” (Nature Communications, 2017)

B1: A2bR: human GPCR A2b receptor expressed in yeast (protein, UniProt P29275 1-332, looked up)
Adenosine receptor A2b: MLLETQDALYVALELVIAALSVAGNVLVCAAVGTANTLQTPTNYFLVSLAAADVAVGLFAIPFAITISLGFCTDFYGCLFLACFVLVLTQSSIFSLLAVAVDRYLAICVPLRYKSLVTGTRARGVIAVLWVLAFGIGLTPFLGWNSKDSATNNCTEPWDGTTNESCCLVKCLFENVVPMSYMVYFNFFGCVLPPLLIMLVIYIKIFLVACRQLQRTELMDHSRTTLQREIHAAKSLAMIVGIFALCWLPVHAVNCVTLFQPAQGKNKPKWAMNMAILLSHANSVVNPIVYAYRNRDFRYTFHKIISRYLLCQADVKSGNGQAGVQPALGVGL
B2: GIV-CT: His-tagged human GIV residues 1,660–1,870 (protein)
chain: SETLESRHHKIKTGSPGSEVVTLQQFLEESNKLTSVQIKSSSQENLLDEVMKSLSVSSDFLGKDKPVSCGLARSVSGKTPGDFYDRRTTKPEFLRPGPRKTEDTYFISSAGKPTPGTQGKIKLVKESSLSRQSKDSNPYATLPRASSVISTAEGTTRRTSIHDFLTKDSRLPISVDSPPAAADSNTTAASNVDKVQESRNSKSRSREQQSS
modifications: left off: His tag, N-terminal, kept

Tests used:
[1] = tested on: Gpa1(1–41)-human Gαi3 (36–354) in S. cerevisiae; experiment: G-protein activation in yeast (Fus3 phosphorylation); type: cell-based; conditions: strain MMY11, ppFus3 immunoblot
Excerpt: G-protein activation assay in yeast
The native G-protein-dependent pheromone response pathway is similarly modified in both strains: the pheromone-activated GPCR (Ste2 or Ste3), endogenous Gα-subunit (Gpa1) and the cell cycle arrest-inducing protein far1 are deleted. In MMY11, the G-protein inhibitor Sst2 is also deleted. Both strains were transformed with a centromeric plasmid (CEN TRP) encoding a chimeric yeast Gpa1(1–41)-human Gαi3 (36–354) protein under the control of the endogenous Gpa1 promoter[68] (courtesy of Mary Cismowski, Nationwide Children's Hospital) using the lithium acetate method. […] Individual colonies were inoculated into 3 ml of SDGalactose-Trp-Ura and incubated overnight at 30 °C to induce the expression of the proteins of interest under the control of the galactose-inducible promoter of pYES2. This starting culture was used to inoculate 20 ml of SDGalactose-Trp-Ura at 0.3 OD600. Exponentially growing cells (∼0.7–0.8 OD600, 4–5 h) were pelleted to prepare samples for immunoblotting (see below). […]
Yeast protein samples for immunoblotting were prepared by acid lysis and precipitation followed by neutralization and solubilization. […] Proteins (∼15–20 μl per lane) were separated by SDS–PAGE, blocked in PBS supplemented with 5% BSA and analysed by sequential incubation with primary and secondary antibodies. […]

[2] = Circular dichroism and thermal denaturation of GIV-CT; type: physicochemical
Protocol: Circular dichroism measurements were performed on a Jasco J-810 spectropolarimeter (JASCO, Tokyo, Japan). The circular dichroism spectrum was recorded on a GIV-CT protein sample 8.4 μM in PBS (pH 7.0) with 0.2 mM DTT in a 0.2 cm path length quartz cuvette at 25 °C. The thermal denaturation curve from 5 to 95 °C was recorded on the same protein sample and cuvette by increasing temperature at a rate of 1 °C min^−1 and measuring the change in ellipticity at 222 nm.

Gαi3-GDP = experiment: NMR perturbation of Gαi3-GDP backbone amide signals; type: binding, human; conditions: 30 °C, pH 7.0, TROSY
Protocol: Full-length human Gαi3 (UNIPROT entry P08754) cloned in a pET24d(+) plasmid (a generous gift from Ichio Shimada, University of Tokyo) was used to purify the protein used in NMR experiments. For this, protein expression was induced in BL21 Rosetta (Life Technologies) cell cultures with 1 mM IPTG for 16 h at 23 °C in a modified M9 minimal medium containing 1 g l^−1 15N-NH4Cl, 2 g l^−1 2H-^13C-glucose and 1 g l^−1 of ^2H-^13C-^15N Celtone base powder in ^2H2O with 30 mg l^−1 kanamycin and 34 mg l^−1 chloramphenicol. The pelleted cells were lysed by sonication in 50 mM Tris, 200 mM NaCl, 100 mM KCl and 1 mM DTT at pH 8.0, and the supernatant was loaded on a Ni^2+-loaded His-Trap FF column. […]
All NMR data were measured on a Bruker Avance III 800 MHz (18.8 T) spectrometer equipped with a cryogenically cooled triple resonance z-gradient probe, processed with Topspin (Bruker) and analysed with Sparky. […] Gαi3 spectra were recorded at 30 °C on ^2H-^13C-^15N–Gαi3 samples with a threefold molar excess of GDP in 10 mM HEPES (pH 7.0) with 10 mM MgCl2, 5 mm DTT, 0.01% NaN3 and 5% ^2H2O. […] The assignment of Gαi3 resonances in the presence of a fivefold molar excess of GIV fragment 1,671–1,696 was achieved from the joint analysis of an HNCO and ^1H–^15N TROSY spectra recorded along a titration (at molar ratios 1:0, 1:0.2,1:0.5, 1:1, 1:2 and 1:5). […]

Row | Molecule | activation of Gαi3 WT and Gαi3 N256E [1] | activation of Gαi3 ΔC9 [1] | thermal denaturation ([2]; 5 to 95 °C, 1 °C min^−1, ellipticity at 222 nm, PBS pH 7.0) | secondary structure by circular dichroism ([2]; […] in PBS pH 7.0, 0.2 mM DTT, 25 °C) | fraction of assigned peaks with significant chemical shift perturbations (Gαi3-GDP) [%] | overall decrease in signal intensity (median) (Gαi3-GDP; twofold molar excess GIV-CT) [fold]
1 | B1 | equally | completely blunted |  |  |  | 
2 | B2 |  |  | no cooperative transition | little, if any, secondary structure | < 20 | ~3
